These results are taken from patent US20240059785A1 (QILU PUGET SOUND BIOTHERAPEUTICS, published 2024).

Changes are numbered by the printed parent chain. Names and notes keep the numbering of the source.

Test [1] concerns the target T1, human CD20 (Homo sapiens CD20) (Homo sapiens, UniProt P11836 1-297).
T1 construct: Multi-pass cell surface antigen; present on Raji, Ramos, WSU-DLCL2 cells, human CD19+ B cells, or on stably transfected CHO cells (CD20/CHO); also called hCD20
T1 sequence: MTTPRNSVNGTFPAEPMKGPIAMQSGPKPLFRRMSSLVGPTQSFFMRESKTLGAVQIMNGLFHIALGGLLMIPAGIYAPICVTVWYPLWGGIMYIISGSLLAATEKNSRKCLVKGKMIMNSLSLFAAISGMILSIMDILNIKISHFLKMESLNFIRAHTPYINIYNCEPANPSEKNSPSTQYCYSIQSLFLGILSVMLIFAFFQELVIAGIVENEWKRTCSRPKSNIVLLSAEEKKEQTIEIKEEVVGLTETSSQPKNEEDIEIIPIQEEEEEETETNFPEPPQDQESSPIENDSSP
Description: FACS on Raji cells, crude transfection supernatant.

Test [2] has as its target T1, human CD20 (Homo sapiens CD20). Description: FACS on WSU-DLCL2, Raji and Ramos cells, 10 µg/mL.
The target in test [3] is T2, cynomolgus monkey CD37 (Macaca fasicularis CD37) (cynomolgus monkey (Macaca fasicularis …, UniProt P11049 1-281 (human entry))).
T2 construct: On CD20+ or CD19+ B cells in cynomolgus monkey PBMCs; also called cynoCD37
T2 chain: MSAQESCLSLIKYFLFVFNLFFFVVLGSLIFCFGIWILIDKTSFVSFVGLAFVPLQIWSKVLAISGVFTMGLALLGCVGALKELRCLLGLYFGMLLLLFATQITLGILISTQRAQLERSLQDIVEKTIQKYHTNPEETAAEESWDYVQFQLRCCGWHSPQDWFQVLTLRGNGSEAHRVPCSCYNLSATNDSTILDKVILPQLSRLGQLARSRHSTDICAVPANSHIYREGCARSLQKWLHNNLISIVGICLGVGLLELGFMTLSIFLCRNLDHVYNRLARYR
Description: FACS, ratio of EC50 on cynomolgus monkey B cells to EC50 on human B cells. In general terms: Flow cytometry measures light scatter and fluorescence of single cells or particles in a stream.

In test [4] the target is T3, human CD37 (Homo sapiens CD37) (Homo sapiens, UniProt P11049 1-281).
T3 construct: Multi-pass cell surface antigen; present on Raji, Ramos, WSU-DLCL2 cells, human B cells, or on stably transfected CHO cells (CD37/CHO); also called hCD37
T3 sequence: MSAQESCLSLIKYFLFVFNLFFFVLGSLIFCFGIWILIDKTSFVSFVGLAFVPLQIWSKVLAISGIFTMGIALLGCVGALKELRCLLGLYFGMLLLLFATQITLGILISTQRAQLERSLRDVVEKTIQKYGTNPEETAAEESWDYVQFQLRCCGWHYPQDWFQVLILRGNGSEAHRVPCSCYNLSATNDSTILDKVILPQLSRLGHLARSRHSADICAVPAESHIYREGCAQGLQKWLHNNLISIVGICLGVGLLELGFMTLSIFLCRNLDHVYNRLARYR
Briefly: FACS, APC-labelled antibody on CD19+ B cells of human PBMCs.

In test [5] the target is T2, cynomolgus monkey CD37 (Macaca …). Briefly: FACS, APC-labelled antibody on CD19+ B cells of cynomolgus monkey PBMCs.
For test [6], the target named is T1, human CD20 (Homo sapiens CD20). Description: FACS on CHO cells stably expressing hCD20 (CD20/CHO).
In test [7] the target is T3, human CD37 (Homo sapiens CD37). Description: FACS on CHO cells stably expressing hCD37 (CD37/CHO), EC50 of Geo MFI.
Test [8] shares this target. Briefly: FACS on WSU-DLCL2, Raji and Ramos cells, 10 µg/mL.
The target in test [9] is T2, cynomolgus monkey CD37 (Macaca …). Description: FACS on CD20+ gated cynomolgus monkey PBMCs.
The target is the same in test [10]. Description: FACS on CD20+ gated cynomolgus monkey PBMCs, compared with anti-hCD37 Ab1.
Test [11] deals with T1, human CD20 (Homo sapiens CD20). Briefly: FACS on Raji cells, titration.
Test [12] shares this target. Description: FACS on CHO cells stably expressing hCD20 (CD20/CHO), EC50 of Geo MFI.
The target in test [13] is T3, human CD37 (Homo sapiens CD37). Briefly: FACS on CHO cells stably expressing hCD37 (CD37/CHO).

B1: anti-hCD20 Ab1-T6 (antibody, human IgG1, kappa, name in Kabat numbering, V domains shown)
VH: QVQLVQSGAEVKKPGSSVKVSCKASGYTFTSYNMHWVRQAPGQGLEWMGRIYPGNGDTSYNQKFQGRVTLTVDKSSSTAYMELSSLRSEDTAVYFCARVVYYSNSYWYFDVWGTGTMVTVSS
VL: EIVLTQSPDFQSVTPKEKVTITCRASSSVSYMHWYQQKPDQSPKPLIYAPSNLASGVPSRFSGSGSGTDYTLTINSLEAEDAATYYCQQWSFNPPTFGAGTKLEIKR
notes: IgG1; also called variant #3
In the case of B1, in [1], the binding result is on record as “binds”.

B2: anti-hCD20 Ab1-T8 (antibody, human IgG1, kappa, name in Kabat numbering, V domains shown)
VH: B1 VH with R50A, S59D
VL: B1 VL
notes: IgG1; also called variant #8
B2: the binding result in [1] is recorded as “binds”.

B3: anti-hCD20 Ab1-T7 (antibody, human IgG1, kappa, name in Kabat numbering, V domains shown)
VH: B1 VH with R50A, N55E
VL: B1 VL
notes: IgG1; also called variant #7
Regarding B3, in [2], the binding result is recorded as “binds”.

B4: anti-hCD37 Ab1.A1 (antibody, human IgG1, kappa)
heavy: not shown
light: DIQMTQSPSSLSASVGDRVTITCRTSENVYNYLAWYQQKPGKAPKLLIYFAKTLAEGVPSRFSGSGSGTQFTLTISSLQPEDSASYYCQHHSDNPWTFGGGTELEIKRTVAAPSVFIFPPSDEQLKSGTASVVCLLNNFYPREAKVQWKVDNALQSGNSQESVTEQDSKDSTYSLSSTLTLSKADYEKHKVYACEVTHQGLSSPVTKSFNRGEC
notes: anti-hCD37 Ab1 with VH-M34V + VL-S31N; also called anti-CD37 Ab1.A1
For orientation: EC50 means the concentration that produces a half-maximal response. B4: the “fold less potent than its binding of human B cells” value in test [3] was found to be 62.7 fold. Moreover, the EC50 in test [4] was 4.05 nM; in [5] it was 254 nM.

B5: anti-hCD37 Ab1.A1.1 (antibody)
heavy: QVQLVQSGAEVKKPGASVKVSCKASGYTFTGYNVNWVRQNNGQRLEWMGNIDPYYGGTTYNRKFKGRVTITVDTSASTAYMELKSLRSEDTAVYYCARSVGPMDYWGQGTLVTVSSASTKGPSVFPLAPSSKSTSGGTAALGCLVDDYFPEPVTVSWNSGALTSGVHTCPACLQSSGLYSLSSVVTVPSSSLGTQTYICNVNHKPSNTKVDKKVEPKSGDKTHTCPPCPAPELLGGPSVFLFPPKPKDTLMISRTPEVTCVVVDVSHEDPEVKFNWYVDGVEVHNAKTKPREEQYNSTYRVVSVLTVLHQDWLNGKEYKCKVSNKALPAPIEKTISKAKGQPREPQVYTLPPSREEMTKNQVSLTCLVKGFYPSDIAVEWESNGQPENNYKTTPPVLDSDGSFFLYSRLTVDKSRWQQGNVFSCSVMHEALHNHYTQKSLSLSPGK
light: B4 light with S131K, Q160C, S162C, C214S
notes: Ab1.A1 with HC K147D, F170C, V173C, C220G, K409R and LC S131K, Q160C, S162C, C214S; also called α-CD37 Ab1.A1.1
B5: in test [6], the binding result was “no binding (tested: about 0.0002 nM to about 30 nM)”. This molecule also gave an EC50 in [7] of 1.33 nM.

B6: anti-hCD37 Ab1 (antibody, human IgG1, kappa, V domains shown)
VH: QVQLVQSGAEVKKPGASVKVSCKASGYTFTGYNMNWVRQNNGQRLEWMGNIDPYYGGTTYNRKFKGRVTITVDTSASTAYMELKSLRSEDTAVYYCARSVGPMDYWGQGTLVTVSS
VL: DIQMTQSPSSLSASVGDRVTITCRTSENVYSYLAWYQQKPGKAPKLLIYFAKTLAEGVPSRFSGSGSGTQFTLTISSLQPEDSASYYCQHHSDNPWTFGGGTELEIKR
notes: Humanized IgG1/kappa derived from G28.1; also called aCD37 Ab1
For B6, the binding result in [8] is reported as “binds”.

B7: anti-hCD37 Ab1.N12 (antibody, human IgG1, kappa, V domains shown)
VH: B6 VH with M34L, K65Q
VL: B6 VL with T53S, D93E
notes: anti-hCD37 Ab1 with VH M34L + K64Q and VL T53S + D93E; also called anti-CD37 Ab1.N12
As for B7, the binding result in [9] was “binds”.

B8: anti-hCD37 Ab1.N18 (antibody, human IgG1, kappa, name in Kabat numbering, V domains shown)
VH: B6 VH with M34L, K65Q
VL: B6 VL with S31N, L54I, D93E
notes: IgG1 variant of anti-hCD37 Ab1
Turning to B8, in [10], the binding result is recorded as “binds”.

B9: anti-hCD37 Ab1.N19 (antibody, human IgG1, kappa, name in Kabat numbering, V domains shown)
VH: B6 VH with M34L, K65Q, M103L
VL: B6 VL with S31N, T53S, S92G
notes: as for B8
With B9, the binding result in test [9] is reported as “binds”.

B10: anti-hCD20 Ab1.2.2 (antibody, human IgG4 S228P, kappa)
heavy: QVQLVQSGAEVKKPGSSVKVSCKASGYTFTSYNMHWVRQAPGQGLEWMGAIYPGNGDTSYNQKFQGRVTLTVDKSSSTAYMELSSLRSEDTAVYFCARVVYYSNSYWYFDVWGTGTMVTVSSASTKGPSVFPLAPCSRSTSESTAALGCLVKDYFPEPVTVSWNSGALTSGVHTFPAVLQSSGLYSLSSVVTVPSSSLGTKTYTCNVDHKPSNTKVDKRVESKYGPPCPPCPAPELLGGPDVFLFPPKPKDTLMISRTPEVTCVVVDVSHEDPEVKFNWYVDGVEVHNAKTKPREEQYNATYRVVSVLTVLHQDWLNGKEYKCKVSNKALPAPIEKTISKAKGQPREPQVYTLPPSREMTKNQVSLTCLVKGFYPSDIAVEWESNGQPENNYKTTPPVLDSDGSFFLYSKLTVDKSRWQQGNVFSCSVMHEALHNHYTQKSLSLSPGK
light: EIVLTQSPDFQSVTPKEKVTITCRASSSVSYMHWYQQKPDQSPKPLIYAPSNLASGVPSRFSGSGSGTDYTLTINSLEAEDAATYYCQQWSFNPPTFGAGTKLEIKRTVAAPSVFIFPPSDEQLKSGTASVVCLLNNFYPREAKVQWKVDNALQSGNSQESVTEQDSKDSTYSLSSTLTLSKADYEKHKVYACEVTHQGLSSPVTKSFNRGEC
notes: Ab1.2 with S239D, S298A
In [11], B10 registered an EC50 of 26.3 nM.

B11: anti-hCD20 Ab1.2.2.1 (antibody, human IgG4 S228P, kappa)
heavy: QVQLVQSGAEVKKPGSSVKVSCKASGYTFTSYNMHWVRQAPGQGLEWMGAIYPGNGDTSYNQKFQGRVTLTVDKSSSTAYMELSSLRSEDTAVYFCARVVYYSNSYWYFDVWGTGTMVTVSSASTKGPSVFPLAPCSRSTSESTAALGCLVKDYFPEPVTVSWNSGALTSGVHTFPAVLQSSGLYSLSSVVTVPSSSLGTKTYTCNVDHKPSNTKVDKRVESKYGPPCPPCPAPELLGGPDVFLFPPKPKDTLMISRTPEVTCVVVDVSHEDPEVKFNWYVDGVEVHNAKTKPREEQYNATYRVVSVLTVLHQDWLNGKEYKCKVSNKALPAPIEKTISKAKGQPREPQVYTLPPSREEMTKNQVSLTCLVKGFYPSDIAVEWESNGQPENNYKTTPPVLRSDGSFFLYSELTVDKSRWQQGNVFSCSVMHEALHNHYTQKSLSLSPGK
light: B10 light
notes: Ab1.2.2 with D399R and K409E in the CH3; also called α-CD20 Ab1.2.2.1
In test [12], B11 showed an EC50 of 5.02 nM. In addition, the binding result in [13] is listed as “no binding (tested: about 0.0002 nM to about 30 nM)”.

B12: rituximab (antibody, V domains shown)
VH: QVQLQQPGAELVKPGASVKMSCKASGYTFTSYNMHWVKQTPGRGLEWIGAIYPGNGDTSYNQKFKGKATLTADKSSSTAYMQLSSLTSEDSAVYYCARSTYYGGDWYFNVWGAGTTVTVSA
VL: QIVLSQSPAILSASPGEKVTMTCRASSSVSYIHWFQQKPGSSPKPWIYATSNLASGVPVRFSGSGSGTSYSLTISRVEAEDAATYYCQQWTSNPPTFGGGTKLEIK
Regarding B12, in test [11], the midpoint of the response, the EC50, lay at 18.2 nM.
